Results reported in patent US20240076381A1.

Molecular target: FcRn-µ2m fusion protein (human β2m fused by (Gly4Ser)3 to the extracellular domain of human FcRn, His-tagged) (human) (UniProt P61769)
Experiment: ELISA on coated FcRn-β2m fusion, pH 6; KD estimated by saturation binding fit

Chain of UniProt P61769 (P61769 other isoform, or with tags, fused parts or gaps limits assumed): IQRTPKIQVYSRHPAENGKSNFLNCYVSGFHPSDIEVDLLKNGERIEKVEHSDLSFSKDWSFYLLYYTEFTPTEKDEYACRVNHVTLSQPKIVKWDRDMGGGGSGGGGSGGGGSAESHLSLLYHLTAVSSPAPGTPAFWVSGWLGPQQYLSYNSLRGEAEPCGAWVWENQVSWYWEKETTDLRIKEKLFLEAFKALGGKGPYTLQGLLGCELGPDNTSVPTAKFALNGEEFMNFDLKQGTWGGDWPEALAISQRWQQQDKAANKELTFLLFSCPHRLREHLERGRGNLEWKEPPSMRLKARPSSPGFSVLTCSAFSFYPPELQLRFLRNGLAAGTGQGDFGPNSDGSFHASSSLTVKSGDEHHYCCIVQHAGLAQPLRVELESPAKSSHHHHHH

Substance: Trastuzumab IgG (antibody)
- Kd: 900 nM
